{"source": "patent US12103969B2", "about": "“Anti-Siglec antibody, pharmaceutical composition comprising the same, and uses thereof” (Academia Sinica, priority 2018, dated 2024)", "molecules": {"B1": {"name": "Siglec-7: recombinant human Siglec-7 extracellular domain (ECD).Fc fusion protein (protein)", "chain": "QKSNRKDYSLTMQSSVTVQEGMCVHVRCSFSYPVDSQTDSDPVHGYWFRAGNDISWKAPVATNNPAWAVQEETRDRFHLLGDPQTKNCTLSIRDARMSDAGRYFFRMEKGNIKWNYKYDQLSVNVTALTHRPNILIPGTLESGCFQNLTCSVPWACEQGTPPMISWMGTSVSPLHPSTTRSSVLTLIPQPQHHGTSLTCQVTLPGAGVTTNRTIQLNVSYPPQNLTVTVFQGEGTASTALGNSSSLSVLEGQSLRLVCAVDSNPPARLSWTWRSLTLYPSQPSNPLVLELQVHLGDEGEFTCRAQNSLGSQHVSLNLSLQQEYTGKMRPVSGVLLGAVGGAGATALVFLSFCVIFIVVRSCRKKSARPAADVGDIGMKDANTIRGSASQGNLTESWADDNPRHHGLAAHSSGEEREIQYAPLSFHKGEPQDLSGQEATNNEYSEIKIPK"}}, "key": {"hHBV [1]": {"test_system": "hHBV", "assay": "Bio-layer interferometry: immobilized Fc-lectin and hHBV", "type": "binding, hepatitis B virus", "conditions": "hHBV, BLI, same condition as Siglec-3", "from_the_text": "HBV was purified from blood samples of chronic hepatitis B (CHB) patients and HBV-transgenic mice, respectively. The protocol for HBV was purified by conventional method. HBV viral load was determinate by RT-PCR according to a standard HBV plasmid. HBsAg level was quantified by the HBsAg ELISA kit.\nSialidase S and sialidase C were used to remove sialoglycan from HBV or sialoglycans, respectively. Sialidase S releases only α(2-3)-linked Neu5Ac, while Sialidase C release both α(2-3) and α(2-6)-linked Neu5Ac. The sialidase-treated substrates were used for HBV-Siglec-3 binding assay and competition assay.\nThe interaction between human Siglec.Fc fusion protein and HBV was determined by the Bio-layer interferometry. […] The valence between HBV and human Siglec-3 was determined, which correlates the strength of multivalent association with that of monovalent association as shown in the following: • KA, surf=F (S×10^−2)^n−1×(KA, mono)^n, where KA, surf is thereciprocal of KD (HBV and Siglec-3), KA, mono is the reciprocal of KD (Biantennary a2-6 linked sialylglycopeptide and Siglec-3); n is the number of valency number; F is the statistic factor in the system and S is equal to 40(Å), which is estimated according to crystal structure of Siglec-3 published on RCSB protein data bank (Number: 5J0B). […]"}, "hHBV [2]": {"test_system": "hHBV", "assay": "Immunoprecipitation of hHBV by Siglec ECD.Fc fusion proteins", "type": "binding, hepatitis B virus", "conditions": "Western blot with anti-HBs", "procedure": "HBV ([…]) was incubated with recombinant Siglec-3/-7/-9 ECD.Fc fusion proteins, respectively, for 16 hours at 4° C., followed by incubation with Sepharose-conjugated Protein A beads for immunoprecipitation. The samples were fractionated on 12% SDS-PAGE before blotting to PVDF membrane and incubated in blocking buffer (0.05% Tween 20 in TBS containing 5% BSA) at 4° C. overnight. Blots were incubated with […] polyclonal goat-anti-HBs Ab for 1 hour at room temperature, followed by incubation with Streptavidin-HRP (1:10000 dilution) for another 1 hour at room temperature, and were visualized by ECL."}}}
{"molecule": "B1", "values": [{"measurement": "binding to hHBV", "setting": "hHBV [1]", "result": "did not bind"}, {"measurement": "pull down of hHBV HBsAg (immunoprecipitation)", "setting": "hHBV [2]", "result": "cannot pull down"}]}
